Assay results reported in patent US20040072256A1 (published 2004).

B1: NKp44-Ig fusion protein (Fc fusion)
chain: QSKAQVLQSVAGQTLTVRCQYPPTGSLYEKKGWCKEASALVCIRLVTSSKPRTMAWTSRFTIWDDPDAGFFTVTMTDLREEDSGHYWCRIYRPSDNSVSKSVRFYLVVSPASASTQTPWTPRDLVSSQTQTQSCVPPTAGARQAPESPSTIPVPSQPQNSTLRPGPAAPDPEPKSSDKTHTCPPCPAPEFEGAPSVFLFPPKPKDTLMISRTPEVTCVVVDVSHEDPEVKFNWYVDGVEVHNAKTKPREEQYNSTYRVVSVLTVLHQDWLNGKEYKCKVSNKALPAPIEKTISKAKGQPREPQVYTLPPSRDELTKNQVSLTCLVKGFYPSDIAVEWESNGQPENNYKTTPPVLDSDGSFFLYSKLTVDKSRWQQGNVFSCSVMHEALHNHYTQKSLSLSPGK
modifications: sialylated oligosaccharides (binding to HA depends on them)
notes: Made in COS-7, purified on protein G
B2: NKp46D2-Ig fusion protein (Fc fusion)
chain: YDTPTLSVHPGPEVISGEKVTFYCRLDTATSMFLLLKEGRSSHVQRGYGKVQAEFPLGPVTTAHRGTYRCFGSYNNHAWSFPSEPVKLLVTGDIENTSLAPEDPTFPADTWGTYLLTTETGLQKDHALWDHTAQDPEPKSSDKTHTCPPCPAPEFEGAPSVFLFPPKPKDTLMISRTPEVTCVVVDVSHEDPEVKFNWYVDGVEVHNAKTKPREEQYNSTYRVVSVLTVLHQDWLNGKEYKCKVSNKALPAPIEKTISKAKGQPREPQVYTLPPSRDELTKNQVSLTCLVKGFYPSDIAVEWESNGQPENNYKTTPPVLDSDGSFFLYSKLTVDKSRWQQGNVFSCSVMHEALHNHYTQKSLSLSPGK
modifications: sialic acid residues (binding depends on them)
notes: Junction and leader used for secretion not described
B3: NKp30-Ig fusion protein (Fc fusion)
chain: LWVSQPPEIRTLEGSSAFLPCSFNASQGRLAIGSVTWFRDEVVPGKEVRNGTPEFRGRLAPLASSRFLHDHQAELHIRDVRGHDASIYVCRVEVLGLGVGTGNGTRLVVEKEHPQLGDPEPKSSDKTHTCPPCPAPEFEGAPSVFLFPPKPKDTLMISRTPEVTCVVVDVSHEDPEVKFNWYVDGVEVHNAKTKPREEQYNSTYRVVSVLTVLHQDWLNGKEYKCKVSNKALPAPIEKTISKAKGQPREPQVYTLPPSRDELTKNQVSLTCLVKGFYPSDIAVEWESNGQPENNYKTTPPVLDSDGSFFLYSKLTVDKSRWQQGNVFSCSVMHEALHNHYTQKSLSLSPGK
B4: KIR-1-Ig fusion protein (Fc fusion)
chain: HEGVHRKPSLLAHPGRLVKSEETVILQCWSDVMFEHFLLHREGMFNDTLRLIGEHHDGVSKANFSISRMTQDLAGTYRCYGSVTHSPYQVSAPSDPLDIVIIGLYEKPSLSAQLGPTVLAGENVTLSCSSRSSYDMYHLSREGEAHERRLPAGPKVNGTFQADFPLGPATHGGTYRCFGSFHDSPYEWSKSSDPLLVSVTGNPSNSWPSPTEPSSKTGNPRHLH
notes: extracellular domain; not shown: Fc portion of human IgG1
B5: NKAT-8-Ig fusion protein (Fc fusion)
chain: QEGVHRKPSFLALPGHLVKSEETVILQCWSDVMFEHFLLHREGKFNNTLHLIGEHHDGVSKANFSIGPMMPVLAGTYRCYGSVPHSPYQLSAPSDPLDMVIIGLYEKPSLSAQPGPTVQAGENVTLSCSSRSSYDMYHLSREGEAHERRLPAVRSINGTFQADFPLGPATHGGTYRCFGSFRDAPYEWSNSSDPLLVSVTGNPSNSWPSPTEPSSKTGNPRHLH
notes: as for B4
B6: NKp46D1-Ig fusion protein (Fc fusion)
chain: QQQTLPKPFIWAEPHFMVPKEKQVTICCQGNYGAVEYQLHFEGSLFAVDRPKPPERINKVKFYIPDMNSRMAGQYSCIYRVGELWSEPSNLLDLVVTEMDPEPKSSDKTHTCPPCPAPEFEGAPSVFLFPPKPKDTLMISRTPEVTCVVVDVSHEDPEVKFNWYVDGVEVHNAKTKPREEQYNSTYRVVSVLTVLHQDWLNGKEYKCKVSNKALPAPIEKTISKAKGQPREPQVYTLPPSRDELTKNQVSLTCLVKGFYPSDIAVEWESNGQPENNYKTTPPVLDSDGSFFLYSKLTVDKSRWQQGNVFSCSVMHEALHNHYTQKSLSLSPGK
notes: Junction between domain and Fc not described

Columns and labels:
[1] = biological target: T1, hemagglutinin (HA) of Influenza virus A/PR/8/34 (H1N1) (Influenza virus A/PR/8/34 (H1N1), UniProt P03452 18-565); experiment: flow cytometry, IV-infected vs uninfected 1106mel cells
T1 construct: whole, on cells; On IV-infected 1106mel cells; also called IV HA; viral HA

[2] = biological target: T2, hemagglutinin-neuraminidase (HN) glycoprotein of Sendai virus (Sendai virus); experiment: flow cytometry, SV-infected vs uninfected 721.221 cells
T2 construct: whole, on cells; also called SV HN; Sendai HN

[3] = biological target: T2, hemagglutinin-neuraminidase (HN) …; experiment: flow cytometry, 293T cells transfected with Sendai HN cDNA vs mock
[4] = biological target: T1, hemagglutinin (HA) of Influenza virus …; experiment: flow cytometry on IV-infected vs uninfected 1106mel cells
[5] = biological target: T1, hemagglutinin (HA) of Influenza virus …; experiment: flow cytometry on IV-infected 1106mel cells (FIG. 11)

T2 sequence (P19758 whole entry): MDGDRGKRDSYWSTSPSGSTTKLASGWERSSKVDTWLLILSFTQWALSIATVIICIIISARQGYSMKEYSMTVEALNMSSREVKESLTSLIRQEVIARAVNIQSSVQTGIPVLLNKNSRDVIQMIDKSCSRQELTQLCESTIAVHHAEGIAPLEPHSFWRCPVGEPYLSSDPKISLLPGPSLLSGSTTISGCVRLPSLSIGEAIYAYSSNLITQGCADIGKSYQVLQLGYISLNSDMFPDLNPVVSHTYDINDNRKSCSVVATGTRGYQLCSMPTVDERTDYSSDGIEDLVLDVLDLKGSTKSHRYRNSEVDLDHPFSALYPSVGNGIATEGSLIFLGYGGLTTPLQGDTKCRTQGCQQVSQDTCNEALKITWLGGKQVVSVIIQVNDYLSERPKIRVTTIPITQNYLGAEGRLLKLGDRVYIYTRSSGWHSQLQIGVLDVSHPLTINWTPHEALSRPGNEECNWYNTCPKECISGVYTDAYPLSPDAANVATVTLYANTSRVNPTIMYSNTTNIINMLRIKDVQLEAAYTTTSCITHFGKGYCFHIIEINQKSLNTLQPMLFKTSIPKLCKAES

Binder	fold increase in staining on SV infection [2] [fold]	binding result [4]	other results
B1	10		fold increase in staining on IV infection [1]: ~4 fold; fold increase in staining on HN transfection [3]: 2 fold
B2	~10		
B3		no binding	
B4		no binding	
B5		no binding	
B6			binding result [5]: no binding
